{
  "source": "paper PMC11346345",
  "about": "(Cell reports, 2024)",
  "binders": {"B1": {"name": "ADI-58048 IgG (antibody, V domains shown)", "VH": "QLQLQESGPGLVKPSETLSLTCTVSGGSITTSHYYWGWIRQPPGKGLEWVGSMYYSGGIYYNPSLKGRVTISVDTSKNQFSLKLSSVTAADTAVYYCALADAPDDAFDIWGQGTMVTVSS", "VL": "DIQMTQSPSSLSAFVGDRVTITCRASQSISSYLNWYQQKPGKAPKLLIYAASTLQSGVPSRFSGSGSGTDFTLTISSLQSEDFATYYCQESYSIPFTFGPGTKVDIK"}},
  "molecular_target": "recombinant GP38 of CCHFV Afg09-2990 (Crimean-Congo hemorrhagic fever virus, …, UniProt E5FEZ4, strain)",
  "experiment": "SPR",
  "data": [
    {"binder": "B1", "values": [
      {"measurement": "fold reduction in binding", "result": "~27", "unit": "fold"}
    ]}
  ]
}
